These results are taken from publication PMC9376112, “XPC–PARP complexes engage the chromatin remodeler ALC1 to catalyze global genome DNA damage repair” (Nature Communications, 2022).

The target in one experiment is T1, PARP1-GFP (UniProt P09874 1-1014).
T1 construct: source: U2OS (FRT) WT, stably expressed (Flp-In, doxycycline-inducible), in lysate; not shown: GFP, C-terminal, kept
The experiment is described as follows: affinity purification with mass spectrometry; GFP pull-down of PARP1-GFP or GFP-PARP2 from U2OS (FRT) WT cells, label-free proteomics with iBAQ quantification; cells unirradiated or UV-C-irradiated (20 J/m^2, 1 h). Particulars: partners not purified.

For a further experiment, the target named is T2, GFP-PARP2 (UniProt Q9UGN5-2 1-570).
T2 construct: also called PARP2-GFP; source: U2OS (FRT) WT, stably expressed (Flp-In, doxycycline-inducible), in lysate; not shown: GFP, N-terminal, kept
T2 sequence (Q9UGN5 other isoform, or with tags, fused parts or gaps): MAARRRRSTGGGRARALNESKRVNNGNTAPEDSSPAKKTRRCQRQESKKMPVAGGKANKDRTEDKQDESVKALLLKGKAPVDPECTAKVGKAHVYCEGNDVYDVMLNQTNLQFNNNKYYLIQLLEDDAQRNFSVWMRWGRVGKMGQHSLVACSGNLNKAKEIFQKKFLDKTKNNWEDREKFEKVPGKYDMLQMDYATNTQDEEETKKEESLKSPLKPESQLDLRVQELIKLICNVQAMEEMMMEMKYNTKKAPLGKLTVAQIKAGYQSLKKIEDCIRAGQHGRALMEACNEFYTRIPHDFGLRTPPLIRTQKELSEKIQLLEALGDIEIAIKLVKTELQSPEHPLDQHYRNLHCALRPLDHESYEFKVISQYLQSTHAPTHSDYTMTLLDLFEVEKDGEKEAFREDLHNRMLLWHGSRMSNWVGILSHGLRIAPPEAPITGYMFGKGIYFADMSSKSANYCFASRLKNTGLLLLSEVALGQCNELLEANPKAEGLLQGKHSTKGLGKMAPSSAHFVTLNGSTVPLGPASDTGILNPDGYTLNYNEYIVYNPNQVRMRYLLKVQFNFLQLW
The experiment is described as above. Particulars: partners not purified.

T1 sequence (P09874 whole entry): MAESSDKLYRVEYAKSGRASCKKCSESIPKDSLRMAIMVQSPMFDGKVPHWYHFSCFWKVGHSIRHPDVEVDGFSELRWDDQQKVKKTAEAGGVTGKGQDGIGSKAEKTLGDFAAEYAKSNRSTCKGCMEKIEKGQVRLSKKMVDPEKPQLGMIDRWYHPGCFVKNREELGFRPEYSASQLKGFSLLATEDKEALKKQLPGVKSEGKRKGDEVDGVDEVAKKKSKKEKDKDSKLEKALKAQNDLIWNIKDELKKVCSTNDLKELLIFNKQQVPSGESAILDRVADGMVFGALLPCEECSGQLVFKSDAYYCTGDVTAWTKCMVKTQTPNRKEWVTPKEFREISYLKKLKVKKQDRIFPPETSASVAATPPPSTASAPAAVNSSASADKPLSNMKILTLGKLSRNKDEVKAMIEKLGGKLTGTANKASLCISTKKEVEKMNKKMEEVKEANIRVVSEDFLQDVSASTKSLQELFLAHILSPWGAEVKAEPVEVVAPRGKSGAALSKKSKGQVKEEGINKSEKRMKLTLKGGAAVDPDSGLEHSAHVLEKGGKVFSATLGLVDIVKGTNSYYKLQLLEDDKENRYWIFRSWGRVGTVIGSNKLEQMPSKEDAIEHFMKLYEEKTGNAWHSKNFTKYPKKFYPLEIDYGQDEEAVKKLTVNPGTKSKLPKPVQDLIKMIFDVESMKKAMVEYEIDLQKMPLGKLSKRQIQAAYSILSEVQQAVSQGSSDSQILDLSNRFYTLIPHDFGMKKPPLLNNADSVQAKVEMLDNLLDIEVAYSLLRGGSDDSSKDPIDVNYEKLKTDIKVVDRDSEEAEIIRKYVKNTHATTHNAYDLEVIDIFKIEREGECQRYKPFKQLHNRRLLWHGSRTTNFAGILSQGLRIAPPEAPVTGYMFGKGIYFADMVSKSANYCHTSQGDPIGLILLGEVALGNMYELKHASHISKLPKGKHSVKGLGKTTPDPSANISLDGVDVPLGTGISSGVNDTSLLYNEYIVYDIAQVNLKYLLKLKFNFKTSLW

B1: ALC1 (endogenous) (enzyme, human (endogenous in U2OS), UniProt Q86WJ1 1-897, looked up)
chain: MERAGATSRGGQAPGFLLRLHTEGRAEAARVQEQDLRQWGLTGIHLRSYQLEGVNWLAQRFHCQNGCILGDEMGLGKTCQTIALFIYLAGRLNDEGPFLILCPLSVLSNWKEEMQRFAPGLSCVTYAGDKEERACLQQDLKQESRFHVLLTTYEICLKDASFLKSFPWSVLVVDEAHRLKNQSSLLHKTLSEFSVVFSLLLTGTPIQNSLQELYSLLSFVEPDLFSKEEVGDFIQRYQDIEKESESASELHKLLQPFLLRRVKAEVATELPKKTEVVIYHGMSALQKKYYKAILMKDLDAFENETAKKVKLQNILSQLRKCVDHPYLFDGVEPEPFEVGDHLTEASGKLHLLDKLLAFLYSGGHRVLLFSQMTQMLDILQDYMDYRGYSYERVDGSVRGEERHLAIKNFGQQPIFVFLLSTRAGGVGMNLTAADTVIFVDSDFNPQNDLQAAARAHRIGQNKSVKVIRLIGRDTVEEIVYRKAASKLQLTNMIIEGGHFTLGAQKPAADADLQLSEILKFGLDKLLASEGSTMDEIDLESILGETKDGQWVSDALPAAEGGSRDQEEGKNHMYLFEGKDYSKEPSKEDRKSFEQLVNLQKTLLEKASQEGRSLRNKGSVLIPGLVEGSTKRKRVLSPEELEDRQKKRQEAAAKRRRLIEEKKRQKEEAEHKKKMAWWESNNYQSFCLPSEESEPEDLENGEESSAELDYQDPDATSLKYVSGDVTHPQAGAEDALIVHCVDDSGHWGRGGLFTALEKRSAEPRKIYELAGKMKDLSLGGVLLFPVDDKESRNKGQDLLALIVAQHRDRSNVLSGIKMAALEEGLKKIFLAAKKKKASVHLPRIGHATKGFNWYGTERLIRKHLAARGIPTYIYYFPRSKSAVLHSQSSSSSSRQLVP
notes: ALC1 (CHD1L), endogenous in U2OS cells; also called poly-(ADP-ribose)-dependent chromatin remodeler ALC1; the remodeler; source: endogenous, U2OS (FRT) WT lysate
For the molecule B1, the “percent of the isolated bait molecules associated with the prey (iBAQ)” value with PARP1-GFP is 0.07%; in the experiment with GFP-PARP2, approximately 15%.

B2: XPC (endogenous) (natural protein, human (endogenous in U2OS), UniProt Q01831 1-940, looked up)
chain: MARKRAAGGEPRGRELRSQKSKAKSKARREEEEEDAFEDEKPPKKSLLSKVSQGKRKRGCSHPGGSADGPAKKKVAKVTVKSENLKVIKDEALSDGDDLRDFPSDLKKAHHLKRGATMNEDSNEEEEESENDWEEVEELSEPVLGDVRESTAFSRSLLPVKPVEIEIETPEQAKTRERSEKIKLEFETYLRRAMKRFNKGVHEDTHKVHLLCLLANGFYRNNICSQPDLHAIGLSIIPARFTRVLPRDVDTYYLSNLVKWFIGTFTVNAELSASEQDNLQTTLERRFAIYSARDDEELVHIFLLILRALQLLTRLVLSLQPIPLKSATAKGKKPSKERLTADPGGSSETSSQVLENHTKPKTSKGTKQEETFAKGTCRPSAKGKRNKGGRKKRSKPSSSEEDEGPGDKQEKATQRRPHGRERRVASRVSYKEESGSDEAGSGSDFELSSGEASDPSDEDSEPGPPKQRKAPAPQRTKAGSKSASRTHRGSHRKDPSLPAASSSSSSSKRGKKMCSDGEKAEKRSIAGIDQWLEVFCEQEEKWVCVDCVHGVVGQPLTCYKYATKPMTYVVGIDSDGWVRDVTQRYDPVWMTVTRKCRVDAEWWAETLRPYQSPFMDREKKEDLEFQAKHMDQPLPTAIGLYKNHPLYALKRHLLKYEAIYPETAAILGYCRGEAVYSRDCVHTLHSRDTWLKKARVVRLGEVPYKMVKGFSNRARKARLAEPQLREENDLGLFGYWQTEEYQPPVAVDGKVPRNEFGNVYLFLPSMMPIGCVQLNLPNLHRVARKLDIDCVQAITGFDFHGGYSHPVTDGYIVCEEFKDVLLTAWENEQAVIERKEKEKKEKRALGNWKLLAKGLLIRERLKRRYGPKSEAAAPHTDAGGGLSSDEEEGTSSQAEAARILAASWPQNREDEEKQKLKGGPKKTKREKKAAASHLFPFEQL
notes: XPC, endogenous in U2OS cells; source: endogenous, U2OS (FRT) WT lysate
For the molecule B2, the “fold, fraction of bait molecules associated with XPC, GFP-PARP2 against PARP1-GFP (iBAQ)” value with GFP-PARP2 was determined as 10 fold.
